Two molecules from PMC2905415, “Characterization of a Clp Protease Gene Regulator and the Reaeration Response in Mycobacterium tuberculosis” can be followed below.

For one series, the target named is T1, Rv2745-S L24SR25D (DBL) (Mycobacterium tuberculosis, UniProt P9WMH7 1-112, L24S;R25D;V111D;A112D).
T1 sequence: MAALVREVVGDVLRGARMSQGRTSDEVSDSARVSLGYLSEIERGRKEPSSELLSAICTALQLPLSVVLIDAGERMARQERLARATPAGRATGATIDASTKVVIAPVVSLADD
The series can be described thus: EMSA. Conditions: protein: recombinant; chain copies: 2; label: 5' Cy5.5; blunt. (In EMSA bound probe runs differently from free probe, usually more slowly.)

Series [1] has as its target T2, Rv2745-S (ClgR, stabilized/soluble form) (Mycobacterium tuberculosis, UniProt P9WMH7 1-112, V111D;A112D).
T2 sequence: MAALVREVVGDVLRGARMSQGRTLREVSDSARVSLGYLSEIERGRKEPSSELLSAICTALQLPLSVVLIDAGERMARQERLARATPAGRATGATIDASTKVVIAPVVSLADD
The series can be described thus: EMSA. Particulars: protein: recombinant; tags: NusA fusion and His tag (pET50b), removed with HRV3C protease; chain copies: 2; label: 5' Cy5.5; blunt.

The target of series [2] is T2, Rv2745-S (ClgR, stabilized/soluble form). The series can be described thus: competition. Conditions: protein: recombinant; tags: NusA fusion and His tag (pET50b), removed with HRV3C protease; chain copies: 2; blunt.

B1: clpC1 promoter probe (dsDNA)
DNA 1: CGAGCGGCCATCGGTTCGCCGCCAGCGAACGCGGCAAAGTAC
DNA 2: GTACTTTGCCGCGTTCGCTGGCGGCGAACCGATGGCCGCTCG
Turning to B1, the binding result with Rv2745-S L24SR25D (DBL) is “no binding”; in series [1], “binds”.

B2: clpC1 promoter unlabeled competitor (dsDNA)
DNA 1: CGAGCGGCCATCGGTTCGCCGCCAGCGAACGCGGCAAAGTAC
DNA 2: GTACTTTGCCGCGTTCGCTGGCGGCGAACCGATGGCCGCTCG
With B2, in series [2], the binding result was “binds”.
